Measurements published in article PMC4884786.

Target: Fbxl17 (UniProt Q9UF56)
Assay: HA-Sufu IP, Myc-Fbxl17 blot
Conditions: reference: Sufu wild type; sites S342,S346

- binding against the reference: stronger
Substance: Sufu (from UniProt Q9UMX1) Sufu S342A/S346A
